Experimental data from patent publication US20200405854A1, “Combination Therapies Comprising Daratumumab, Bortezomib, Thalidomide and Dexamethasone and Their Uses” (Janssen Biotech, Inc., priority 2019, published 2020).
Where two headings read alike, the source gives them in different places.

How the values were obtained:
[1] = target: T1, CD38 on red blood cells (RBCs) (Homo sapiens, UniProt P28907); assay: Indirect Antiglobulin Test (Indirect Coombs test) interference
T1 construct: endogenous in cells; host or cells: red blood cells (reagent RBCs / donor RBCs in blood-bank testing)
Description: Daratumumab binds to CD38 on red blood cells (RBCs) and results in a positive Indirect Antiglobulin Test (Indirect Coombs test). Daratumumab-mediated positive indirect antiglobulin test may persist for up to 6 months after the last daratumumab infusion. Daratumumab bound to RBCs masks detection of antibodies to minor antigens in the patient's serum [see References (15)]. The determination of a patient's ABO and Rh blood type are not impacted [see Drug Interactions (7.1)].
Daratumumab binds to CD38 on RBCs and interferes with compatibility testing, including antibody screening and cross matching. Daratumumab interference mitigation methods include treating reagent RBCs with dithiothreitol (DTT) to disrupt daratumumab binding [see References (15)] or genotyping. Since the Kell blood group system is also sensitive to DTT treatment, K-negative units should be supplied after ruling out or identifying alloantibodies using DTT-treated RBCs.

NK cells = assay: Pharmacodynamics, NK cells; assay type: in vivo, human; conditions: peripheral whole blood and bone marrow
Description: NK cells express CD38 and are susceptible to daratumumab mediated cell lysis.

[2] = test system: adult patients with relapsed and refractory multiple myeloma; assay: Monotherapy safety, three open-label clinical trials; assay type: in vivo, human
Description: Serious adverse reactions were reported in 51 (33%) patients.

[3] = test system: patients with relapsed or refractory multiple myeloma; assay: Study GEN501 open-label dose escalation monotherapy trial, efficacy; assay type: in vivo, human
Description: (§1) Treatment continued until unacceptable toxicity or disease progression.
Seventy-four percent of patients had received prior ASCT. Prior therapies included bortezomib (100%), lenalidomide (95%), pomalidomide (36%) and carfilzomib (19%).

[4] = test system: patients with multiple myeloma; assay: Immunogenicity, anti-daratumumab antibodies; assay type: in vivo, human
Description: As with all therapeutic proteins, there is the potential for immunogenicity. The detection of antibody formation is highly dependent on the sensitivity and specificity of the assay. Additionally, the observed incidence of antibody (including neutralizing antibody) positivity in an assay may be influenced by several factors including assay methodology, sample handling, timing of sample collection, concomitant medications, and underlying disease. For these reasons, comparison of the incidence of antibodies to daratumumab in the studies described below with the incidence of antibodies in other studies or to other products may be misleading. […] One patient administered DARZALEX as combination therapy, developed transient neutralizing antibodies against daratumumab. However, this assay has limitations in detecting anti-daratumumab antibodies in the presence of high concentrations of daratumumab; therefore, the incidence of antibody development might not have been reliably determined.

[5] = Solution pH and storage of diluted solution; assay type: physicochemical
Description: Prepare the solution for infusion using aseptic technique as follows: • Calculate the dose (mg), total volume (mL) of DARZALEX solution required and the number of DARZALEX vials needed based on patient actual body weight. • Check that the DARZALEX solution is colorless to pale yellow. […] Infusion bags/containers must be made of either polyvinylchloride (PVC), polypropylene (PP), polyethylene (PE) or polyolefin blend (PP+PE). Dilute under appropriate aseptic conditions. Discard any unused portion left in the vial. • Gently invert the bag/container to mix the solution. […] The diluted solution may develop very small, translucent to white proteinaceous particles, as daratumumab is a protein. […] (59° F.−77° F.) and in room light. Diluted solution may be kept at room temperature for a maximum of 15 hours (including infusion time). • If not used immediately, the diluted solution can be stored prior to administration for up to 24 hours at refrigerated conditions 2° C.−8° C. (36° F.−46° F.) and protected from light.
DARZALEX is supplied as a colorless to pale yellow preservative-free solution for intravenous infusion in single-dose vials. The pH is 5.5.

[6] = test system: patients with relapsed or refractory multiple myeloma; assay: SIRIUS open-label monotherapy trial, efficacy; assay type: in vivo, human
Description: as §1
The median patient age was 63.5 years (range: 31 to 84 years), 49% were male and 79% were Caucasian. Patients had received a median of 5 prior lines of therapy. […] Prior therapies included bortezomib (99%), lenalidomide (99%), pomalidomide (63%) and carfilzomib (50%).

[7] = test system: patients with multiple myeloma
[8] = Clinical pharmacokinetics; assay type: in vivo, human
[9] = Cardiac electrophysiology; conditions: non-clinical or clinical data
[10] = test system: patients with newly diagnosed multiple myeloma eligible for ASCT; assay: CASSIOPEIA, adverse reactions and laboratory abnormalities

For “DARZALEX: immunoglobulin G1 kappa (IgG1κ) human monoclonal antibody against CD38 antigen; HC SEQ ID NO: 9, LC SEQ ID NO: 10”, the “Indirect Antiglobulin Test (Indirect Coombs test) result” value [1] was “positive”, the “persistence of positive indirect antiglobulin test after the last infusion” value [1] was “up to 6 months” and the “absolute counts and percentages of total NK cells and activated NK cells” value (NK cells) was “Decreases”. The “Anemia, laboratory abnormality” value ([2]; Any Grade) was 45%, the Arthralgia ([2]; Any Grade) was 17% and the Back pain ([2]; Any Grade) was 23%. For the same substance, the Chills ([2]; Any Grade) was 10%, the Constipation ([2]; Any Grade) was 15% and the Cough ([2]; Any Grade) was 21%. It also gave a Decreased appetite ([2]; Any Grade) of 15%, a Diarrhea ([2]; Any Grade) of 16% and a Dyspnea ([2]; Any Grade) of 15%. It also gave a Fatigue ([2]; Any Grade) of 39%, a Headache ([2]; Any Grade) of 12% and a Hypertension ([2]; Any Grade) of 10%. For the same substance, the Infusion reaction ([2]; Any Grade) was 48%, the “Lymphopenia, laboratory abnormality” value ([2]; Any Grade) was 72% and the Musculoskeletal chest pain ([2]; Any Grade) was 12%. For the same substance, the Nasal congestion ([2]; Any Grade) was 17%, the Nasopharyngitis ([2]; Any Grade) was 15% and the Nausea ([2]; Any Grade) was 27%. For the same substance, the “Neutropenia, laboratory abnormality” value ([2]; Any Grade) was 60%, the Pain in extremity ([2]; Any Grade) was 15% and the Pneumonia ([2]; Any Grade) was 11%. The Pyrexia ([2]; Any Grade) was 21%, the “Thrombocytopenia, laboratory abnormality” value ([2]; Any Grade) was 48% and the “Upper respiratory tract infection” value ([2]; Any Grade) was 20%. For the same substance, the Vomiting ([2]; Any Grade) was 14%, the “Anemia, laboratory abnormality” value ([2]; Grade 3) was 19% and the Arthralgia ([2]; Grade 3) was 0%. For the same substance, the Back pain ([2]; Grade 3) was 2%, the Chills ([2]; Grade 3) was 0% and the Constipation ([2]; Grade 3) was 0%. For the same substance, the Cough ([2]; Grade 3) was 0%, the Decreased appetite ([2]; Grade 3) was 1% and the Diarrhea ([2]; Grade 3) was 1%. The Dyspnea ([2]; Grade 3) was 1%, the Fatigue ([2]; Grade 3) was 2% and the Headache ([2]; Grade 3) was 1%. For the same substance, the Hypertension ([2]; Grade 3) was 5%, the Infusion reaction ([2]; Grade 3) was 3% and the “Lymphopenia, laboratory abnormality” value ([2]; Grade 3) was 30%. It also gave a Musculoskeletal chest pain ([2]; Grade 3) of 1%, a Nasal congestion ([2]; Grade 3) of 0% and a Nasopharyngitis ([2]; Grade 3) of 0%. The Nausea ([2]; Grade 3) was 0%, the “Neutropenia, laboratory abnormality” value ([2]; Grade 3) was 17% and the Pain in extremity ([2]; Grade 3) was 1%. For the same substance, the Pneumonia ([2]; Grade 3) was 6%, the Pyrexia ([2]; Grade 3) was 1% and the “Thrombocytopenia, laboratory abnormality” value ([2]; Grade 3) was 10%. The “Upper respiratory tract infection” value ([2]; Grade 3) was 1%, the Vomiting ([2]; Grade 3) was 0% and the “Anemia, laboratory abnormality” value ([2]; Grade 4) was 0%. It also gave an Arthralgia ([2]; Grade 4) of 0%, a Back pain ([2]; Grade 4) of 0% and a Chills ([2]; Grade 4) of 0%. The Constipation ([2]; Grade 4) was 0%, the Cough ([2]; Grade 4) was 0% and the Decreased appetite ([2]; Grade 4) was 0%. For the same substance, the Diarrhea ([2]; Grade 4) was 0%, the Dyspnea ([2]; Grade 4) was 0% and the Fatigue ([2]; Grade 4) was 0%. It also gave a Headache ([2]; Grade 4) of 0%, a Hypertension ([2]; Grade 4) of 0% and an Infusion reaction ([2]; Grade 4) of 0%. The “Lymphopenia, laboratory abnormality” value ([2]; Grade 4) was 10%, the Musculoskeletal chest pain ([2]; Grade 4) was 0% and the Nasal congestion ([2]; Grade 4) was 0%. For the same substance, the Nasopharyngitis ([2]; Grade 4) was 0%, the Nausea ([2]; Grade 4) was 0% and the “Neutropenia, laboratory abnormality” value ([2]; Grade 4) was 3%. It also gave a Pain in extremity ([2]; Grade 4) of 0%, a Pneumonia ([2]; Grade 4) of 0% and a Pyrexia ([2]; Grade 4) of 0%. For the same substance, the “Thrombocytopenia, laboratory abnormality” value ([2]; Grade 4) was 8%, the “Upper respiratory tract infection” value ([2]; Grade 4) was 0% and the Vomiting ([2]; Grade 4) was 0%. For the same substance, the serious adverse reactions ([2]; monotherapy 16 mg/kg, 156 patients) was 33%, the “CR, number of patients” value ([3]; 16 mg/kg, 42 patients) was 1 and the Overall response rate ([3]; 16 mg/kg, 42 patients) was 36%. The “VGPR, number of patients” value ([3]; 16 mg/kg, 42 patients) was 3, the “median duration of response” value ([3]; in vivo) was “not estimable” and the “median time to response” value ([3]; in vivo) was 1 month. For the same substance, the “patients tested positive for anti-daratumumab antibodies” value ([4]; 111 evaluable monotherapy patients) was “none”, the “patients tested positive for anti-daratumumab antibodies” value ([4]; of the 1,050 evaluable combination therapy patients) was 2 and the “time diluted solution can be stored prior to administration” value ([5]; refrigerated 2° C.−8° C., protected from light) was “up to 24 hours”. The “time diluted solution may be kept” value ([5]; room temperature, including infusion time) was no more than 15 h, the pH ([5]; solution for intravenous infusion) was 5.5 and the “Overall response rate (ORR)” value ([6]; N = 106) was 29.2%. The “Partial response (PR)” value ([6]; in vivo) was 17.0%, the “Stringent complete response (sCR)” value ([6]; in vivo) was 2.8% and the “Very good partial response (VGPR)” value ([6]; in vivo) was 9.4%. For the same substance, the “median duration of response” value ([6]; in vivo) was 7.4 months, the “median time to response” value ([6]; in vivo) was 1 month and the “Complete response (CR)” value ([6]; number of patients) was 0. The “Overall response rate (ORR)” value ([6]; number of patients) was 31, the “Partial response (PR)” value ([6]; number of patients) was 18 and the “Stringent complete response (sCR)” value ([6]; number of patients) was 3. For the same substance, the “Very good partial response (VGPR)” value ([6]; number of patients) was 10, the “incidence of any grade infusion reactions” value ([7]; Week 2 infusion) was 2% and the “Grade 3/4 infusion reaction” value ([7]; Week 2 or subsequent infusions) was “Less than 1%”. For the same substance, the “incidence of any grade infusion reactions” value ([7]; cumulatively, subsequent infusions) was 6%, the “incidence of any grade infusion reactions” value ([7]; first (16 mg/kg, Week 1) infusion) was 37% and the “incidence of infusion modification due to reactions” value ([7]; human, in vivo) was 36%. The “Hepatitis B virus reactivation” value ([7]; including fatal cases) was “less than 1%”, the “time of infusion reactions after completing DARZALEX” value ([7]; nearly all reactions, during infusion or within) was no more than 4 h and the “time of infusion reactions after infusion” value ([7]; prior to the introduction of post-infusion medication) was “up to 48 hours”. For the same substance, the “patients who experienced an infusion reaction” value ([7]; share of all patients in clinical trials) was “approximately half”, the “area under the concentration-time curve (AUC), dose dependence” value ([8]; 1 to 24 mg/kg monotherapy or 1 to 16 mg/kg combination therapy) was “increases more than proportionally” and the “drug-drug interactions between daratumumab and lenalidomide, pomalidomide, bortezomib and dexamethasone” value ([8]; clinical pharmacokinetic assessments) was “no clinically relevant drug-drug interactions”. For the same substance, the “terminal half-life compared with monotherapy” value ([8]; combination therapy) was “similar”, the volume of distribution ([8]; combination therapy) was 4.4 ± 1.5 L and the “trough serum concentration (Cmin), mean±SD” value ([8]; end of weekly dosing, monotherapy) was 573 ± 332 µg/mL. For the same substance, the “central volume of distribution and clearance with increasing body weight” value ([8]; human, in vivo) was “increased”, the “clearance with increasing dose and with multiple dosing” value ([8]; human, in vivo) was “decreased” and the “linear clearance, mean±SD” value ([8]; monotherapy) was 171.4 ± 95.3 mL/day. For the same substance, the “terminal half-life associated with linear clearance, mean±SD” value ([8]; monotherapy) was 18 ± 9 days, the volume of distribution ([8]; monotherapy) was 4.7 ± 1.3 L and the “differences in pharmacokinetics based on sex, age, mild and moderate hepatic impairment, or renal impairment” value ([8]; monotherapy or combination therapy) was “No clinically significant differences”. For the same substance, the “time to steady state” value ([8]; monotherapy, into the every 4-week dosing period (by the 21st infusion)) was “approximately 5 months”, the “potential to delay ventricular repolarization” value [9] was “no evidence” and the “IRRs Grade 3 or 4” value ([10]; at re-initiation following ASCT) was less than 1%. The “incidence of IRRs” value ([10]; first infusion following ASCT, upon re-initiation) was 11%.
